Laboratory results reported in patent publication US20230303711A1.

Key:
[1] = molecular target: His-tagged human CD47-ECD protein (CD47-His) (human) (UniProt Q08722); test: competitive ELISA on coated CD47-His (2 µg/mL); blocked ligand SIRPα-Fc-Bio (0.1 µg/mL), HRP-streptavidin, OD450
[2] = molecular target: Fc-tagged human CD47-ECD protein (CD47-Fc) (human); test: ELISA on coated human CD47-Fc; row printed as Affinity (µg/mL)
Chain of Fc-tagged human CD47-ECD protein (CD47-Fc) (human) (chain, as listed by the source limits assumed): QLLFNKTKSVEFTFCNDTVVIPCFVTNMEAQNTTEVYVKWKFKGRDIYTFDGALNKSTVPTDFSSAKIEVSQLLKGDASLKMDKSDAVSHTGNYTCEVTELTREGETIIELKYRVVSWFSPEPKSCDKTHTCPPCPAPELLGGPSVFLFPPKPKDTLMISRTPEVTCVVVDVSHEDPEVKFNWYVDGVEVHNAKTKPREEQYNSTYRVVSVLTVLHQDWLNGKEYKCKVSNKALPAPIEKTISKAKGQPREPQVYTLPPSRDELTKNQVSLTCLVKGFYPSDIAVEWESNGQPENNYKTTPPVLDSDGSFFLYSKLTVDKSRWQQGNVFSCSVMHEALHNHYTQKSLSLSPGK

Chain of His-tagged human CD47-ECD protein (CD47-His) (human) (Q08722 other isoform, or with tags, fused parts or gaps): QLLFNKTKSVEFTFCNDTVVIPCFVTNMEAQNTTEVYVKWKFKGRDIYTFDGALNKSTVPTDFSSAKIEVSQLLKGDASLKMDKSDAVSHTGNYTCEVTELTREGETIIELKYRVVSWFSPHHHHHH

Row | Substance | parameter C of the printed 4-parameter fit (OD does not fall, A 1.192, D 1.394; not an IC50) [1] [µg/mL] | parameter C of the printed 4-parameter fit (OD does not fall, A 1.343, D 8.036; not an IC50) [1] [µg/mL] | parameter C of the printed 4-parameter fit (OD only falls from A 1.633 to D 1.446; not an IC50) [1] [µg/mL] | EC50 [2] [µg/mL]
1 | IgG (antibody) | 5.76 | 13400 | 1.95 | –
2 | Antibody Hu5F9-G4 | – | – | – | 0.092
